FireProtDB (doi:10.1074/jbc.272.30.18686)

B1: Ribonuclease HI, P0A7Y4 (parent)
chain: MLKQVEIFTDGSCLGNPGPGGYGAILRYRGREKTFSAGYTRTTNNRMELMAAIVALEALKEHCEVILSTDSQYVRQGITQWIHNWKKRGWKTADKKPVKNVDLWQRLDAALGQHQIKWEWVKGHAGHPENERCDELARAAAMNPTLEDTGYQVEV

Variants of: B1
Conditions: Escherichia coli (strain K12), pH 3.2, Thermal, CD, glycine-HCl 10 mM, reversible: yes, structure 2RN2, whole UniProt chain shown; for ddG of mutation (higher = less stable): 53 °C

Variant	ddG of mutation (higher = less stable)	Tm	change of melting temperature, mutant - wild type (higher = more stable)	unfolding enthalpy (van 't Hoff)
MLKQVEIFTDGSCLGNPGPGGYGAILRYRGREKTFSAGYTRTTNNRMELMALIVALEALKEHCEVILSTDSQYARQGITQWIHNWKKRGWKTADKKPVKNVDLWQRLDAALGQHQIKWEWVKGHAGHPENERCDELARAAAMNPTLEDTGYQVEV	-0.36 kcal/mol	54.2 °C	1.2 °C	105 kcal/mol
MLKQVEIFTDGSCLGNPGPGGYGAILRYRGREKTFSAGYTRTTNNRMELMALIVALEALKEHCEVILSTDSQYLRQGITQWIHNWKKRGWKTADKKPVKNVDLWQRLDAALGQHQIKWEWVKGHAGHPENERCDELARAAAMNPTLEDTGYQVEV	-1.49 kcal/mol	57.9 °C	4.9 °C	118 kcal/mol
MLKQVEIFTDGSCLGNPGPGGYGAILRYRGREKTFSAGYTRTTNNRMELMAKIVALEALKEHCEVILSTDSQYVRQGITQWIHNWKKRGWKTADKKPVKNVDLWQRLDAALGQHQIKWEWVKGHAGHPENERCDELARAAAMNPTLEDTGYQVEV	5.9 kcal/mol	33.5 °C	-19.5 °C	70.8 kcal/mol
MLKQVEIFTDGSCLGNPGPGGYGAILRYRGREKTFSAGYTRTTNNRMELMAIIVALEALKEHCEVILSTDSQYVRQGITQWIHNWKKRGWKTADKKPVKNVDLWQRLDAALGQHQIKWEWVKGHAGHPENERCDELARAAAMNPTLEDTGYQVEV	-1.9 kcal/mol	59.2 °C	6.2 °C	84.8 kcal/mol
MLKQVEIFTDGSCLGNPGPGGYGAILRYRGREKTFSAGYTRTTNNRMELMACIVALEALKEHCEVILSTDSQYVRQGITQWIHNWKKRGWKTADKKPVKNVDLWQRLDAALGQHQIKWEWVKGHAGHPENERCDELARAAAMNPTLEDTGYQVEV	-0.8 kcal/mol	55.5 °C	2.5 °C	128 kcal/mol
MLKQVEIFTDGSCLGNPGPGGYGAILRYRGREKTFSAGYTRTTNNRMELMAQIVALEALKEHCEVILSTDSQYVRQGITQWIHNWKKRGWKTADKKPVKNVDLWQRLDAALGQHQIKWEWVKGHAGHPENERCDELARAAAMNPTLEDTGYQVEV	1.2 kcal/mol	49.1 °C	-3.9 °C	90.3 kcal/mol
MLKQVEIFTDGSCLGNPGPGGYGAILRYRGREKTFSAGYTRTTNNRMELMANIVALEALKEHCEVILSTDSQYVRQGITQWIHNWKKRGWKTADKKPVKNVDLWQRLDAALGQHQIKWEWVKGHAGHPENERCDELARAAAMNPTLEDTGYQVEV	1.8 kcal/mol	47.1 °C	-5.9 °C	95.6 kcal/mol
MLKQVEIFTDGSCLGNPGPGGYGAILRYRGREKTFSAGYTRTTNNRMELMAPIVALEALKEHCEVILSTDSQYVRQGITQWIHNWKKRGWKTADKKPVKNVDLWQRLDAALGQHQIKWEWVKGHAGHPENERCDELARAAAMNPTLEDTGYQVEV	1.6 kcal/mol	47.6 °C	-5.4 °C	93 kcal/mol
MLKQVEIFTDGSCLGNPGPGGYGAILRYRGREKTFSAGYTRTTNNRMELMAMIVALEALKEHCEVILSTDSQYVRQGITQWIHNWKKRGWKTADKKPVKNVDLWQRLDAALGQHQIKWEWVKGHAGHPENERCDELARAAAMNPTLEDTGYQVEV	-0.5 kcal/mol	54.6 °C	1.6 °C	112 kcal/mol
MLKQVEIFTDGSCLGNPGPGGYGAILRYRGREKTFSAGYTRTTNNRMELMAVIVALEALKEHCEVILSTDSQYVRQGITQWIHNWKKRGWKTADKKPVKNVDLWQRLDAALGQHQIKWEWVKGHAGHPENERCDELARAAAMNPTLEDTGYQVEV	-1.7 kcal/mol	58.5 °C	5.5 °C	128 kcal/mol
MLKQVEIFTDGSCLGNPGPGGYGAILRYRGREKTFSAGYTRTTNNRMELMALIVALEALKEHCEVILSTDSQYVRQGITQWIHNWKKRGWKTADKKPVKNVDLWQRLDAALGQHQIKWEWVKGHAGHPENERCDELARAAAMNPTLEDTGYQVEV	-1.3 kcal/mol	–	–	–
MLKQVEIFTDGSCLGNPGPGGYGAILRYRGREKTFSAGYTRTTNNRMELMADIVALEALKEHCEVILSTDSQYVRQGITQWIHNWKKRGWKTADKKPVKNVDLWQRLDAALGQHQIKWEWVKGHAGHPENERCDELARAAAMNPTLEDTGYQVEV	1.9 kcal/mol	–	–	–
MLKQVEIFTDGSCLGNPGPGGYGAILRYRGREKTFSAGYTRTTNNRMELMAEIVALEALKEHCEVILSTDSQYVRQGITQWIHNWKKRGWKTADKKPVKNVDLWQRLDAALGQHQIKWEWVKGHAGHPENERCDELARAAAMNPTLEDTGYQVEV	1.5 kcal/mol	–	–	–
MLKQVEIFTDGSCLGNPGPGGYGAILRYRGREKTFSAGYTRTTNNRMELMASIVALEALKEHCEVILSTDSQYVRQGITQWIHNWKKRGWKTADKKPVKNVDLWQRLDAALGQHQIKWEWVKGHAGHPENERCDELARAAAMNPTLEDTGYQVEV	1.8 kcal/mol	47.2 °C	-5.8 °C	118 kcal/mol
MLKQVEIFTDGSCLGNPGPGGYGAILRYRGREKTFSAGYTRTTNNRMELMATIVALEALKEHCEVILSTDSQYVRQGITQWIHNWKKRGWKTADKKPVKNVDLWQRLDAALGQHQIKWEWVKGHAGHPENERCDELARAAAMNPTLEDTGYQVEV	0.8 kcal/mol	50.3 °C	-2.7 °C	108 kcal/mol
MLKQVEIFTDGSCLGNPGPGGYGAILRYRGREKTFSAGYTRTTNNRMELMAFIVALEALKEHCEVILSTDSQYLRQGITQWIHNWKKRGWKTADKKPVKNVDLWQRLDAALGQHQIKWEWVKGHAGHPENERCDELARAAAMNPTLEDTGYQVEV	-0.03 kcal/mol	53.1 °C	0.1 °C	99.8 kcal/mol
MLKQVEIFTDGSCLGNPGPGGYGAILRYRGREKTFSAGYTRTTNNRMELMAGIVALEALKEHCEVILSTDSQYLRQGITQWIHNWKKRGWKTADKKPVKNVDLWQRLDAALGQHQIKWEWVKGHAGHPENERCDELARAAAMNPTLEDTGYQVEV	1.4 kcal/mol	48.4 °C	-4.6 °C	97.8 kcal/mol
MLKQVEIFTDGSCLGNPGPGGYGAILRYRGREKTFSAGYTRTTNNRMELMAVIVALEALKEHCEVILSTDSQYARQGITQWIHNWKKRGWKTADKKPVKNVDLWQRLDAALGQHQIKWEWVKGHAGHPENERCDELARAAAMNPTLEDTGYQVEV	0.52 kcal/mol	51.3 °C	-1.7 °C	107 kcal/mol
MLKQVEIFTDGSCLGNPGPGGYGAILRYRGREKTFSAGYTRTTNNRMELMAIIVALEALKEHCEVILSTDSQYARQGITQWIHNWKKRGWKTADKKPVKNVDLWQRLDAALGQHQIKWEWVKGHAGHPENERCDELARAAAMNPTLEDTGYQVEV	-1.19 kcal/mol	56.9 °C	3.9 °C	102 kcal/mol
MLKQVEIFTDGSCLGNPGPGGYGAILRYRGREKTFSAGYTRTTNNRMELMAIIVALEALKEHCEVILSTDSQYLRQGITQWIHNWKKRGWKTADKKPVKNVDLWQRLDAALGQHQIKWEWVKGHAGHPENERCDELARAAAMNPTLEDTGYQVEV	-1.19 kcal/mol	56.9 °C	3.9 °C	122 kcal/mol
